Assay [1] has as its target T1, Human YKL-40 also known as Chitinase-3-like protein 1 (CHI3L1) (human, UniProt P36222 22-383).
T1 construct: Secreted protein purified from MG63 supernatant or purchased (Catalogue #2599-CH); also called hYKL-40
Description: ELISA, plate coated with 2.5 µg/ml hYKL-40. As for the experimental part: A 96-well ELISA plate were coated with 2.5 μg/ml hYKL-40 or 2.5 μg/ml calmodulin as control. 0.25 μg/ml (8), […] (7), 1 μg/ml (6), 2.5 μg/ml (5), 6.25 μg/ml (4), 12.5 μg/ml (3), 15 μg/ml (2) and 20 μg/ml (1) of the antibodies B3 (SEQ ID NO: 3)-mFc or B10 (SEQ ID NO: 4)-mFc were added.

The target in assay [2] is T1, Human YKL-40 also known as …. Description: ELISA.
Assay [3] concerns the target T2, Murine YKL-40 (mouse, UniProt Q61362 30-389).
T2 construct: Purchased (Catalogue #2649-CH); also called mYKL-40; mouse YKL-40
The assay can be described thus: ELISA.

Assay [4] has as its target T1, Human YKL-40 also known as …. Description: dot blot. As for the experimental part: A dot blot was performed by adding 0.4 μg and 0.2 μg of hYKL-40, 0.4 μg and 0.2 μg mYKL-40, 0.4 μg and 0.2 μg of calmodulin (negative control) and PBS (negative control) onto the nitrocellulose membrane. The membrane was incubated with B3 (SEQ ID NO: 3)-hFc.
A dot blot was performed by adding 0.4 μg and 0.2 μg of hYKL-40, 0.4 μg and 0.2 μg mYKL-40, 0.4 μg and 0.2 μg of calmodulin (negative control) and PBS (negative control) onto the nitrocellulose membrane. The area that the solution penetrates was minimized. The membrane was dried for 1 h at room temperature (RT). Afterwards the membrane was blocked in PBS with 0.1% Tween overnight at 4° C. followed by three washing steps with PBS with 0.1% Tween. The membrane was incubated with B3-hFc (1 μg/mL) in blocking buffer for 2 h at RT in a shaker followed by three washing steps with PBS with 0.1% Tween. The membrane was incubated with HRP anti-human secondary antibody for 2 hours at RT in shaker followed by three washing steps with PBS with 0.1% Tween. The western blot was developed with western blotting detection reagent.

For assay [5] the target is unchanged. Description: western blot. The protocol: For the western blot 0.5 μg hYKL-40 or mYKL-40 were loaded onto a 4-20% SurePAGE, Bis-TRIS gel. The gel was run at 120V for 70 min and afterwards the samples were transferred to a nitrocellulose membrane using iBlot system. The membrane was incubated with 1 μg/ml primary antibody B10 (SEQ ID NO: 4)-hFc.
Assay [6] shares this target. The assay can be described thus: phage ELISA.

T1 sequence (P36222 22-383 limits assumed): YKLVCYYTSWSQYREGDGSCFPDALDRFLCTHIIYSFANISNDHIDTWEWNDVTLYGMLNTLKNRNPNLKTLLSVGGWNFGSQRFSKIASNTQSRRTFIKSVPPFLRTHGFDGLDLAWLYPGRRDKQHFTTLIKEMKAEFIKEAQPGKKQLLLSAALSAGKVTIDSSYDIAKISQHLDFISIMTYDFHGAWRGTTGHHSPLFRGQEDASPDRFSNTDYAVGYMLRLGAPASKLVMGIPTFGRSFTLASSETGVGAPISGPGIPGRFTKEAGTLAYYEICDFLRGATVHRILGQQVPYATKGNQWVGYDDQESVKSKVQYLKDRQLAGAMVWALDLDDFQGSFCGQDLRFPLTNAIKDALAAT
T2 sequence (Q61362 30-389 limits assumed): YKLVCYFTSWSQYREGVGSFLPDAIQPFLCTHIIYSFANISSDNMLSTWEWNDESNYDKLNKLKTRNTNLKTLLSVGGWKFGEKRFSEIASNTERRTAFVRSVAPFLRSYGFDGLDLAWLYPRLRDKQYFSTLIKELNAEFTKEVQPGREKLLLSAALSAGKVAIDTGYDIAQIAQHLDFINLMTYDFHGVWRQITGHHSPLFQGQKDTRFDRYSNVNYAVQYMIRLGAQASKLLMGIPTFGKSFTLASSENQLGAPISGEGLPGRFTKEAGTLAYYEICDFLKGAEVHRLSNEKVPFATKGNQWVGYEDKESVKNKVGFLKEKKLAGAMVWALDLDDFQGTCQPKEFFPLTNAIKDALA

B1: B3 (SEQ ID NO: 3) fused to murine Fc (mFc) (Fc fusion)
chain: MAEVQLLESGGGLVQPGGSLRLSCAASGFRDSDEDMGWVRQAPGKGLEWVSSISAPGGSTYYADSVKGRFTISRDNSKNTLYLQMNSLRAEDTAVYYCASHYNYGHWFDYWGQGTLVTVSSAARSPPLKECPPCAAPDLLGGPSVFIFPPKIKDVLMISLSPMVTCVVVDVSEDDPDVQISWFVNNVEVHTAQTQTHREDYNSTLRVVSALPIQHQDWMSGKEFKCKVNNRALPSPIEKTISKPRGPVRAPQVYVLPPPAEEMTKKEFSLTCMITGFLPAEIAVDWTSNGRTEQNYKNTATVLDSDGSYFMYSKLRVQKSTWERGSLFACSVVHEGLHNHLTTKTISRSLGK
notes: VH domain fused to murine Fc; no linker stated; also called B3-mFc; B3 mouse
As to B1, the binding result in assay [1] is on record as “binds”.

B2: B10 (SEQ ID NO: 4) fused to mFc (Fc fusion)
chain: MAEVQLLESGGGLVQPGGSLRLSCAASGFRDSDEDMGWVRQAPGKGLEWVSSISADSGSTYYADSVKGRFTISRDNSKNTLYLQMNSLRAEDTAVYYCASDYNYWYWFDYWGQGTLVTVSSAARSPPLKECPPCAAPDLLGGPSVFIFPPKIKDVLMISLSPMVTCVVVDVSEDDPDVQISWFVNNVEVHTAQTQTHREDYNSTLRVVSALPIQHQDWMSGKEFKCKVNNRALPSPIEKTISKPRGPVRAPQVYVLPPPAEEMTKKEFSLTCMITGFLPAEIAVDWTSNGRTEQNYKNTATVLDSDGSYFMYSKLRVQKSTWERGSLFACSVVHEGLHNHLTTKTISRSLGK
notes: VH domain fused to murine Fc; no linker stated; also called B10-mFc; B10 mouse
Regarding B2, the binding result in assay [1] is listed as “binds”.

B3: H7 antibody comprising a VL of SEQ ID NO: 14 and a VH of SEQ ID NO: 15 fused to human Fc regions (antibody, human IgG1, kappa, V domains shown)
VH: EVQLQQSGAELVKPGASVKLSCTASGFNIKDTYMHWVKQRPEQGLEWIGRIDPANGNTIYASKFQGKATITRDTSSNTAYMQLSSLTSGDTAVYYCTRGVYYYGGSFYAMDYWGQGTSVTVSS
VL: DIQMTQSPASLSASVGETVTITCGASENIYGALNWYQRKQGKSPQLLIYGATTLADGMSSRFSGSGSGRQYSLKISSLHPDDVATYYCQNVLTTPWTFGGGTKLEIKT
notes: Chimeric mouse/human antibody; also called H7-hFc
Regarding B3, the binding result in assay [2] and in assay [3] was “binds” in each case.

B4: B3 (SEQ ID NO: 3) fused to a human Fc (hFc) (Fc fusion)
chain: MAEVQLLESGGGLVQPGGSLRLSCAASGFRDSDEDMGWVRQAPGKGLEWVSSISAPGGSTYYADSVKGRFTISRDNSKNTLYLQMNSLRAEDTAVYYCASHYNYGHWFDYWGQGTLVTVSSAAVECPPCPAPPVAGPSVFLFPPKPKDTLMISRTPEVTCVVVDVSHEDPEVQFNWYVDGMEVHNAKTKPREEQFNSTFRVVSVLTVVHQDWLNGKEYKCKVSNKGLPAPIEKTISKTKGQPREPQVYTLPPSREEMTKNQVSLTCLVKGFYPSDIAVEWESNGQPENNYKTTPPMLDSDGSFFLYSKLTVDKSRWQQGNVFSCSVMHEALHNHYTQKSLSLSPGK
notes: VH domain fused to human Fc; no linker stated; also called B3-hFc
Turning to B4, the binding result in assay [4] is on record as “binds”.

B5: B10 (SEQ ID NO: 4) fused to a human Fc (Fc fusion)
chain: MAEVQLLESGGGLVQPGGSLRLSCAASGFRDSDEDMGWVRQAPGKGLEWVSSISADSGSTYYADSVKGRFTISRDNSKNTLYLQMNSLRAEDTAVYYCASDYNYWYWFDYWGQGTLVTVSSAAVECPPCPAPPVAGPSVFLFPPKPKDTLMISRTPEVTCVVVDVSHEDPEVQFNWYVDGMEVHNAKTKPREEQFNSTFRVVSVLTVVHQDWLNGKEYKCKVSNKGLPAPIEKTISKTKGQPREPQVYTLPPSREEMTKNQVSLTCLVKGFYPSDIAVEWESNGQPENNYKTTPPMLDSDGSFFLYSKLTVDKSRWQQGNVFSCSVMHEALHNHYTQKSLSLSPGK
notes: VH domain fused to human Fc; no linker stated; also called B10-hFc
Consider B5, for which the binding result in assay [5] is given as “binds”.

B6: B3 predator (phage antibody clone B3) (antibody, V domains shown)
VH: EVQLLESGGGLVQPGGSLRLSCAASGFRDSDEDMGWVRQAPGKGLEWVSSISAPGGSTYYADSVKGRFTISRDNSKNTLYLQMNSLRAEDTAVYYCASHYNYGHWFDYWGQGTLVTVSS
With B6, the binding result in assay [6] is recorded as “binds”.

B7: B10 predator (phage antibody clone B10) (antibody, V domains shown)
VH: EVQLLESGGGLVQPGGSLRLSCAASGFRDSDEDMGWVRQAPGKGLEWVSSISADSGSTYYADSVKGRFTISRDNSKNTLYLQMNSLRAEDTAVYYCASDYNYWYWFDYWGQGTLVTVSS
For B7, in assay [6], the binding result is reported as “binds”.

Values taken from patent US20240360246A1 (BIO Y A S, published 2024).
